# Experimental data published in the Immune Epitope Database (IEDB).
# Tests used:
# HLA-A*03:01 [1] = test: IEDB peptide-MHC binding, purified MHC/competitive/fluorescence; filed as Kd, often an IC50 or EC50 that approximates it; ≥ and ≤ were set here for values at or beyond the usual limits of such assays; conditions: source organism: Escherichia coli O139:H28 str. E24377A
# HLA-B*07:02 [2] = test: IEDB peptide-MHC binding, purified MHC/competitive/radioactivity; filed as Kd, often an IC50 or EC50 that approximates it; ≥ and ≤ were set here for values at or beyond the usual limits of such assays
# HLA-B*53:01 = test: as above
# HLA-B*51:01 = test: as above
# HLA-B*54:01 = test: as above
# HLA-B*35:01 = test: as above
# HLA-B*07:02 [3] = test: IEDB peptide-MHC binding, purified MHC/direct/fluorescence; filed as Kd, often an IC50 or EC50 that approximates it; ≥ and ≤ were set here for values at or beyond the usual limits of such assays; conditions: source organism: Escherichia coli O157:H7
# HLA-A*31:01 = test: as above; conditions: source organism: Escherichia coli
# HLA-A*03:01 [4] = test: as above; conditions: source organism: Escherichia coli O157:H7
# HLA-B*58:01 = test: as above; conditions: source organism: Escherichia coli O157:H7
# HLA-A*01:01 = test: as above; conditions: source organism: Escherichia coli O157:H7
# HLA-B*08:01 = test: as above; conditions: source organism: Escherichia coli O157:H7
# HLA-B*15:01 = test: as above
# HLA-A*02:01 [5] = test: as above; conditions: source organism: Escherichia coli O157:H7
# HLA-A*11:01 = test: as above; conditions: source organism: Escherichia coli O157:H7
# HLA-A*69:01 = test: as above; conditions: source organism: Escherichia coli O157:H7
# HLA-B*46:01 = test: as above
# HLA-B*44:02 = test: as above; conditions: source organism: Escherichia coli O157:H7
# HLA-A*26:01 = test: as above; conditions: source organism: Escherichia coli O157:H7
# HLA-B*27:05 = test: as above; conditions: source organism: Escherichia coli O157:H7
# HLA-B*40:01 = test: as above; conditions: source organism: Escherichia coli O157:H7
# HLA-A*02:17 = test: IEDB peptide-MHC binding, purified MHC/competitive/radioactivity; filed as Kd, often an IC50 or EC50 that approximates it; ≥ and ≤ were set here for values at or beyond the usual limits of such assays
# HLA-A*02:01 [6] = test: as above
# HLA-A*02:06 = test: as above
# HLA-A*02:03 = test: as above; conditions: source organism: Dengue virus 1 Brazil/97-11/1997
# [7] = source organism: SARS coronavirus Tor2
# [8] = source organism: Mammarenavirus lassaense
# [9] = source organism: Vaccinia virus WR
# [10] = source organism: Dengue virus 4 Philippines/H241/1956
# [11] = source organism: Lassa virus Josiah
# [12] = source organism: Dengue virus 3 Sri Lanka/1266/2000
# [13] = source organism: Dengue virus 1 Singapore/S275/1990
sequence,measurement,setting,value
ALALFDLLK,Kd,HLA-A*03:01 [1],56.7 nM
APNAKEEIL,Kd,HLA-B*07:02 [2]; [7],71.2 nM
same,Kd,HLA-B*53:01; [7],18500 nM
same,Kd,HLA-B*51:01; [7],2650 nM
same,Kd,HLA-B*54:01; [7],≥ 23300 nM
same,Kd,HLA-B*35:01; [7],19200 nM
AQRPAKYSY,Kd,HLA-B*07:02 [3],≥ 20000 nM
same,Kd,HLA-A*31:01,622 nM
same,Kd,HLA-A*03:01 [4],≥ 20000 nM
same,Kd,HLA-B*58:01,≥ 20000 nM
same,Kd,HLA-A*01:01,≥ 20000 nM
same,Kd,HLA-B*08:01,≥ 20000 nM
same,Kd,HLA-B*15:01; source organism: Escherichia coli,133 nM
same,Kd,HLA-A*02:01 [5],≥ 20000 nM
same,Kd,HLA-A*11:01,≥ 20000 nM
same,Kd,HLA-A*69:01,≥ 20000 nM
same,Kd,HLA-B*46:01; source organism: Escherichia coli O157:H7,≥ 20000 nM
same,Kd,HLA-B*44:02,≥ 20000 nM
same,Kd,HLA-A*26:01,≥ 20000 nM
same,Kd,HLA-B*27:05,≥ 20000 nM
same,Kd,HLA-B*40:01,≥ 20000 nM
CPFLFLIVL,Kd,HLA-B*07:02 [2]; [8],≥ 77400 nM
same,Kd,HLA-B*53:01; [8],14100 nM
same,Kd,HLA-B*51:01; [8],≥ 54700 nM
same,Kd,HLA-B*54:01; [8],1520 nM
same,Kd,HLA-B*35:01; [8],414 nM
DPDHYKDYAF,Kd,HLA-B*07:02 [2]; [9],≥ 69600 nM
same,Kd,HLA-B*53:01; [9],3440 nM
same,Kd,HLA-B*51:01; [9],≥ 69600 nM
same,Kd,HLA-B*54:01; [9],17300 nM
same,Kd,HLA-B*35:01; [9],894 nM
DPRLVAEHRF,Kd,HLA-B*07:02 [2]; [9],≥ 21400 nM
same,Kd,HLA-B*53:01; [9],1210 nM
same,Kd,HLA-B*51:01; [9],≥ 69600 nM
same,Kd,HLA-B*54:01; [9],≥ 69900 nM
same,Kd,HLA-B*35:01; [9],11700 nM
DPTFQLLNMI,Kd,HLA-B*07:02 [2]; [9],≥ 69600 nM
same,Kd,HLA-B*53:01; [9],12600 nM
same,Kd,HLA-B*51:01; [9],4990 nM
same,Kd,HLA-B*54:01; [9],≥ 27100 nM
same,Kd,HLA-B*35:01; [9],≥ 69900 nM
FLDLPLPWAA,Kd,HLA-A*02:17; [10],499 nM
same,Kd,HLA-A*02:01 [6]; [10],4.19 nM
same,Kd,HLA-A*02:06; [10],59.3 nM
FPAIFSAEVL,Kd,HLA-B*07:02 [2]; [8],1380 nM
same,Kd,HLA-B*53:01; [8],332 nM
same,Kd,HLA-B*51:01; [8],9910 nM
same,Kd,HLA-B*54:01; [8],523 nM
same,Kd,HLA-B*35:01; [8],55.7 nM
FPYVMGDVEL,Kd,HLA-B*07:02 [2]; [8],930 nM
same,Kd,HLA-B*53:01; [8],46.9 nM
same,Kd,HLA-B*51:01; [8],304 nM
same,Kd,HLA-B*54:01; [8],487 nM
same,Kd,HLA-B*35:01; [8],11.1 nM
GLVECNNHY,Kd,HLA-B*15:01; [11],182 nM
same,Kd,HLA-B*46:01; [11],≥ 20000 nM
HMIAGVFFT,Kd,HLA-A*02:17; [12],1400 nM
same,Kd,HLA-A*02:01 [6]; [12],9.01 nM
ILIGFLVLWI,Kd,HLA-A*02:17; [10],2990 nM
same,Kd,HLA-A*02:01 [6]; [10],97.1 nM
ILLKATLLAV,Kd,HLA-A*02:17; [13],318 nM
same,Kd,HLA-A*02:01 [6]; [13],2.24 nM
same,Kd,HLA-A*02:06; source organism: Dengue virus 1 Brazil/97-11/1997,18.1 nM
same,Kd,HLA-A*02:03,2.21 nM
